Three molecules from paper PMC5994897 can be followed below.

The target in experiment [1] is yeast αβ-tubulin (wild type) (yeast (overexpressed in S. cerevisiae)) (UniProt P09733). Put plainly: AUC.
The target of experiment [2] is Yeast tubulin with a C-terminal … tag, ReAsH-labeled (yeast (overexpressed in S. cerevisiae)) (UniProt P09733). Put plainly: TIRF microscopy microtubule-binding titration.

The Kd is the free concentration of one partner at which half of the binding sites on the other are occupied at equilibrium, for simple one-to-one binding. In experiment [1], “Stu1-TOG2 (305-567) (from UniProt P38198 305-567) (domain or fragment)” gave a Kd of 1.68 µM.

B1: Alexa-488-labeled Stu1-TOG2 with a KCK tag (domain or fragment)
chain: DPAMKKNYESLNQLQQDLENLLAPFQSVKETEQNWKLRQSNIIELDNIISGNIPKDNPEEFVTVIKEVQLIELISRATSSLRTTLSLTALLFLKRLIHILNDQLPLSILDQIFVIFKNLLSSTKKISSQTAFHCLITLIIDINHFHNKLFQLSFLLINEKTVTPRFCSAILLRSFLIKFNDSNLSLNNSNTTSPTSKLENNIIYIEEWLKKGISDSQTTVREAMRLTFWYFYKCYPTNAKRLLSSSFSPQLKKATELAIPAHL
modifications: Alexa-488 label
As to B1, the Kd in experiment [2] worked out at 12 µM.

B2: Alexa-488-labeled Stu1-TOG1 with a KCK tag (domain or fragment)
chain: NSNTNTHPDDSFPLYTVFKDESVPIEEKMALLTRFKGHVKKELVNESSIQAYFAALLFISGHYAYRSYPRLIFLSHSSLCYLIKRVAMQSPVQFNDTLVEQLLNHLIFELPNEKKFWLASIKAIEAIYLVNPSKIQAILANFLRRPSENQNGDYLNRIKSTLLTIDELIQINEKNNSNHLQLLRFFMLSFTNLLNNNLNEHANDDNNNVIIELIFDIMYKYLKMDDENSQDLIDGFINDLEVEKFKQKFISLAKSQDQHGSQEDKS
modifications: Alexa-488 label
As to B2, the Kd in experiment [2] is 40 µM.
